# Data from PMC4310589.
# Molecular target: purified recombinant full-length PNKP (human) (UniProt Q96T60)
Substance,3'-phosphatase activity of PNKP (50 fmol) in vitro with 25-400 fmol ATXN3-Q29: stimulation [fold],3'-phosphatase activity of PNKP (50 fmol) in vitro with 50-200 fmol ATXN3-Q72: decrease [fold]
ATXN3-Q29 (WT with 29 polyQ repeats) (from UniProt P54252 1-361) (natural protein),4,–
ATXN3-Q72 (the pathological form with 72 polyQ repeats) (from UniProt P54252 1-361) (natural protein),–,3.5
